T1: MERS Receptor Binding Domain (RBD) protein (MERS virus, UniProt K9N5Q8 367-606)
T1 construct: also called Middle East Respiratory Syndrome (MERS) virus
T1 sequence: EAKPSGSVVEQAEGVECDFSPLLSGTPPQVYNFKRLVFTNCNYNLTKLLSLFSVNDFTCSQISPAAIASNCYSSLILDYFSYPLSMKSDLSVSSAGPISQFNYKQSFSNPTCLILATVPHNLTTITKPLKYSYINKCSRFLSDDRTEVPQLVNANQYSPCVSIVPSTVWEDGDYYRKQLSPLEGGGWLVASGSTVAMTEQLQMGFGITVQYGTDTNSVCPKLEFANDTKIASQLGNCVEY


How the values were obtained:
[1] = molecular target: SARS-CoV-2 Receptor Binding Domain (RBD) protein (SARS-CoV-2, UniProt P0DTC2 319-541)
[2] = molecular target: T2, SARS-CoV-1 Receptor Binding Domain (RBD) protein (SARS-CoV-1, UniProt P59594 306-527); test: SPR; clone listed as COV2 only at the 21st table, row 13, column 3
T2 construct: also called SARS1

[3] = molecular target: T1, MERS Receptor Binding Domain (RBD) …; test: as above
[4] = molecular target: T2, SARS-CoV-1 Receptor Binding Domain …; test: SPR; clone listed as COV2 only at the 21st table, row 22, column 3
[5] = molecular target: T1, MERS Receptor Binding Domain (RBD) …; test: as above
[6] = molecular target: T2, SARS-CoV-1 Receptor Binding Domain …; test: SPR; clone listed as COV2 only at the 21st table, row 23, column 3
[7] = molecular target: T1, MERS Receptor Binding Domain (RBD) …; test: as above
[8] = molecular target: T2, SARS-CoV-1 Receptor Binding Domain …; test: SPR; clone listed as COV2 only at the 21st table, row 4, column 3
[9] = molecular target: T1, MERS Receptor Binding Domain (RBD) …; test: as above
[10] = molecular target: T2, SARS-CoV-1 Receptor Binding Domain …; test: SPR; clone listed as COV2 only at the 21st table, row 15, column 3
[11] = molecular target: T1, MERS Receptor Binding Domain (RBD) …; test: as above
[12] = molecular target: T2, SARS-CoV-1 Receptor Binding Domain …; test: SPR; clone listed as COV2 only at the 21st table, row 19, column 3
[13] = molecular target: T1, MERS Receptor Binding Domain (RBD) …; test: as above
[14] = molecular target: T2, SARS-CoV-1 Receptor Binding Domain …; test: SPR; clone listed as COV2 only at the 21st table, row 14, column 3
[15] = molecular target: T1, MERS Receptor Binding Domain (RBD) …; test: as above
[16] = molecular target: T2, SARS-CoV-1 Receptor Binding Domain …; test: SPR; clone listed as COV2 only at the 21st table, row 12, column 3
[17] = molecular target: T1, MERS Receptor Binding Domain (RBD) …; test: as above
[18] = molecular target: T2, SARS-CoV-1 Receptor Binding Domain …; test: SPR; clone listed as COV2 only at the 21st table, row 17, column 3
[19] = molecular target: T1, MERS Receptor Binding Domain (RBD) …; test: as above
[20] = molecular target: T2, SARS-CoV-1 Receptor Binding Domain …; test: SPR; clone listed as COV2 only at the 21st table, row 21, column 3
[21] = molecular target: T1, MERS Receptor Binding Domain (RBD) …; test: as above
[22] = molecular target: T2, SARS-CoV-1 Receptor Binding Domain …; test: SPR; clone listed as COV2 only at the 21st table, row 16, column 3
[23] = molecular target: T1, MERS Receptor Binding Domain (RBD) …; test: as above
[24] = molecular target: T2, SARS-CoV-1 Receptor Binding Domain …; test: SPR; clone listed as COV2 only at the 21st table, row 65, column 3
[25] = molecular target: T1, MERS Receptor Binding Domain (RBD) …; test: as above
[26] = molecular target: T2, SARS-CoV-1 Receptor Binding Domain …; test: SPR; clone listed as COV2 only at the 21st table, row 64, column 3
[27] = molecular target: T1, MERS Receptor Binding Domain (RBD) …; test: as above

Row | Binder | Kd [1] [nM] | koff [1] [s⁻¹] | kon [1] [M⁻¹ s⁻¹] | further results
1 | COVID19_P21_E12 (scFv, V domains shown, also called COVID19_P21_El2) VH: QVQLVQSGAEVKKPGSSVKVSCKASGGTFISYAISWVRQAPGQGLEWMGGIIPTLGTYNYAQKFQGRVTITADESTSTAYMELSSLRSEDTAVYYCAGSWGISTPMDVWGQGTLVTVSS VL: not shown | 8.82 | 0.000586 | 66500 | binding result [2]: no binding (tested: up to 300 nM); binding result [3]: no binding (tested: up to 300 nM)
2 | COVID19_P22_E12 (scFv, V domains shown) VH: QVQLVQSGAEVKKPGSSVKVSCKASGGTFSSYAINWVRQAPGQGLEWMGGIIPVLHTVDYAQRLQGRVTITADESTSTAYMELSSLRSEDTAVYYCAGEWGISTPMDVWGQGTLVTVSS VL: not shown | 44 | 0.0089 | 200000 | binding result [4]: no binding (tested: up to 300 nM); binding result [5]: no binding (tested: up to 300 nM)
3 | COVID19_P22_F07 (scFv, V domains shown) VH: QVQLVQSGAEVKKPGSSVKVSCKASGGTFSSYAISWVRQAPGQGLEWMGGIIPIFGSTASYAQKFQGRVTITADESTSTAYMELSSLRSEDTAVYYCAGEWGISTPMDVWGQGTLVTVSS VL: not shown | 6.58 | 0.00041 | 63000 | binding result [6]: no binding (tested: up to 300 nM); binding result [7]: no binding (tested: up to 300 nM)
4 | COVID19_P22_F04 (scFv, V domains shown) VH: QVQLVQSGAEVKKPGSSVKVSCKASGGGFITYWIGWVRQAPGQGLEWMGIIYPGDGEARYSQKFQGRVTITADESTSTAYMELSSLRSEDTAVYYCAGGSGISTPMDVWGQGTLVTVSS VL: not shown | 30.6 | 0.0085 | 280000 | binding result [8]: no binding (tested: up to 300 nM); binding result [9]: no binding (tested: up to 300 nM)
5 | COVID19_P21_A08 (scFv, V domains shown) VH: QVQLVQSGAEVKKPGSSVKVSCKASGGTFITYWIGWVRQAPGQGLEWMGWINPNSGGTNYAQKFQGRVTITADESTSTAYMELSSLRSEDTAVYYCAGGSGISTPMDVWGQGTLVTVSS VL: not shown | 13.3 | 0.000496 | 37300 | binding result [10]: no binding (tested: up to 300 nM); binding result [11]: no binding (tested: up to 300 nM)
6 | COVID19_P09_E11 (scFv, V domains shown) VH: QVQLVQSGAEVKKPGSSVKVSCKASGGTFSNHAISWVRQAYGQGLEWMGIIYPGDGTTRYSQKFQGRVTITADESTSTAYMELSSLRSEDTAVYYCAGGSGISTPMDVWGQGTLVTVSS VL: not shown | 0.49 | 0.000123 | 249000 | binding result [12]: no binding (tested: up to 300 nM); binding result [13]: no binding (tested: up to 300 nM)
7 | COVID19_P10_C05 (scFv, V domains shown) VH: QVQLVQSGAEVKKPGSSVKVSCKASGGTFITYWIGWVRQAPGQGLEWMGIIYPGDGEARYSQKFQGRVTITADESTSTAYMELSSLRSEDTAVYYCAGSGGISTPMDVWGQGTLVTVSS VL: not shown | 33.8 | 0.0156 | 462000 | binding result [14]: no binding (tested: up to 300 nM); binding result [15]: no binding (tested: up to 300 nM)
8 | COVID19_P22_H10 (scFv, V domains shown) VH: QVQLVQSGAEVKKPGSSVKVSCKASGGGFSTYWIGWVRQAPGQGLEWVGWINPNSGATKYAQKFQGRVTITADESTSTAYMELSSLRSEDTAVYYCAGGSGISTPMDVWGQGTLVTVSS VL: not shown | 7.59 | 0.00057 | 75000 | binding result [16]: no binding (tested: up to 300 nM); binding result [17]: no binding (tested: up to 300 nM)
9 | COVID19_P10_D08 (scFv, V domains shown) VH: QVQLVQSGAEVKKPGSSVKVSCKASGGTFNSHAISWVRQAPGQGLEWMGWINPNSGATNYAQKFQGRVTITADESTSTAYMELSSLRSEDTAVYYCAGGSGISTPVGVWGQGTLVTVSS VL: not shown | 15.2 | 0.00107 | 70700 | binding result [18]: no binding (tested: up to 300 nM); binding result [19]: no binding (tested: up to 300 nM)
10 | COVID19_P10_G03 (scFv, V domains shown) VH: QVQLVQSGAEVKKPGSSVKVSCKASGGTFSNSSINWVRQAPGQGLEWMGRINPNSGGTNYAQKFQGRVTITADESTSTAYMELSSLRSEDTAVYYCAGGSGISTPMDVWGQGTLVTVSS VL: not shown | 40.4 | 0.00177 | 43800 | binding result [20]: no binding (tested: up to 300 nM); binding result [21]: no binding (tested: up to 300 nM)
11 | COVID19_P09_H09 (scFv, V domains shown) VH: QVQLVQSGAEVKKPGSSVKVSCKASGGTFITYWIYWVRQAPGQGLEWMGIIYPGDGEARYSQKFYGRVTITADESTSTAYMELSSLRSEDTAVYYCAGSGGISTPMDVWGQGTLVTVSS VL: not shown | 35.2 | 0.0154 | 438000 | binding result [22]: no binding (tested: up to 300 nM); binding result [23]: no binding (tested: up to 300 nM)
12 | COVID19_P21_H03 (scFv, V domains shown) VH: QVQLVQSGAEVKKPGSSVKVSCKASGYTFTNYGINWVRQAPGQGLEWMGWMNPYSGNTGYAQKFQGRVTITADESTSTAYMELSSLRSEDTAVYYCAVLSGISTPMDVWGQGTLVTVSS VL: not shown | 11.6 | 0.00113 | 97200 | binding result [24]: no binding (tested: up to 300 nM); binding result [25]: no binding (tested: up to 300 nM)
13 | COVID19_P21_E04 (scFv, V domains shown) VH: QVQLVQSGAEVKKPGSSVKVSCKASGYTFTNYGINWMRQAPGQGLEWMGWMNPNSGNTGYAQKFQGRVTITADESTSTAYMELSSLRSEDTAVYYCAGGSGISTPMDVWGQGTLVTVSS VL: not shown | 2.15 | 0.000588 | 273000 | binding result [26]: no binding (tested: up to 300 nM); binding result [27]: no binding (tested: up to 300 nM)

— US11034762 (CENTIVAX, dated 2021)
